Blank lines part the entries; values can stand above or below the binder they belong to. Numbered stars: 1 amine (or outer) side, 2 acyl side, 3 side chain; on linkers, the order of the positions; unused ones are H or OH. Square brackets hold non-standard residues; d marks the D form. Side chains are listed from the residue outwards. Ends that are not written are not given here. * marks the point of attachment. γGlu = O=C(O)[C@H](CCC(=O)[*:2])N[*:1]; Palmitoyl = CCCCCCCCCCCCCCCC(=O)*; Myristoyl = CCCCCCCCCCCCCC(=O)*; NMeA = CN[C@@H](C)C(=O)O
How the values were obtained:
[1] = biological target: T1, human PrRP receptor GPR10 (human, UniProt P49683 1-370); experiment: competition with 125I-human PrRP31, CHO cells with human GPR10
T1 construct: whole, on cells; also called GPR10 human receptor transfected in CHO cells; human GPR10 receptor
T1 sequence (looked up): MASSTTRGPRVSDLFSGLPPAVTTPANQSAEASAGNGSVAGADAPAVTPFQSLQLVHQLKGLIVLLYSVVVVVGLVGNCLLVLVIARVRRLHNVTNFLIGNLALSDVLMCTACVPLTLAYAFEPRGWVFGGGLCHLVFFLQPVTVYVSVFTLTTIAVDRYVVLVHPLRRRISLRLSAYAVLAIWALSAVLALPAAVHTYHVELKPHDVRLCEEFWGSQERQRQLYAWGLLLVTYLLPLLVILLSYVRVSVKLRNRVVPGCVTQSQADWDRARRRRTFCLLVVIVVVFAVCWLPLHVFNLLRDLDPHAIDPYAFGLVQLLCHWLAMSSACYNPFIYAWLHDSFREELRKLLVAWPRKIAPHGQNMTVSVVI
Method: CHO cells transfected with human PrRP receptor GPR10 (Perkin Elmer, USA) were grown on 24-well plates coated with polyethyleneimine. […] The following agents were used for the experiment: binding buffer (25 mmol.1⁻¹ Tris, pH 7.4; 118 mmol.1⁻¹ NaCl, 10 mmol.1⁻¹ MgCl₂, 1 mmol.1⁻¹ CaCl₂, 5.5 mmol.1⁻¹ glucose, 0.5 mg/ml BSA), unlabeled analogs of PrRP (i.e. the analog being tested) at a final concentration between 10⁻¹¹ to 10⁻⁴ mol.1⁻¹, and radiolabeled human ¹²⁵1-PrRP31 at a final concentration of 5×10⁻¹¹ mol.1⁻¹.
(§1) Plates were incubated for 60 minutes at room temperature. After incubation, the cells were solubilized in 0.1 mol/l solution of NaOH, and the radioactivity bound to the cells was counted using a γ-counter. The experiments were performed in duplicate, and repeated at least three times.

[2] = biological target: T2, rat PrRP receptor in RC-4B/C cells (rat, UniProt Q64121 1-370); experiment: competition with 125I-rat PrRP31, RC-4B/C cells
T2 construct: whole, on cells; endogenous receptor of RC-4B/C cells (ATCC); also called rat receptor; GPR10 receptor expressed in rat hypophyseal cells
T2 sequence (looked up): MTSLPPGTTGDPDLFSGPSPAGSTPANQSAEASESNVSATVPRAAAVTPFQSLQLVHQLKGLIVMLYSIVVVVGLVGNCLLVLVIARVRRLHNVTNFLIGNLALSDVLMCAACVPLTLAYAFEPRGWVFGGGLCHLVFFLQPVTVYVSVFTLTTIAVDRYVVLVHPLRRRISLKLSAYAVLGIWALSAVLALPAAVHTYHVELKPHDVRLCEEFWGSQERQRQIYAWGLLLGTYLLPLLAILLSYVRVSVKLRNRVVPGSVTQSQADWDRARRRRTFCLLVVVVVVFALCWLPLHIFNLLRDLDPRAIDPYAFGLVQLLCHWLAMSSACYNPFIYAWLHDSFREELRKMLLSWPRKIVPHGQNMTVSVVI
Method: The rat pituitary cell line RC-4B/C (ATCC, Manassas, USA) was grown on 24-well plates which had their bottom coated with polyethyleneimine. The cells were grown to the optimal density of 300-450 thousand cells per well.
as §1

B1: analog no. 34 (peptide)
peptide: Myristoyl-TPDINPAWYASRPFRPVGRF-NH2
SMILES: CCCCCCCCCCCCCC(=O)N[C@H](C(=O)N1CCC[C@H]1C(=O)N[C@@H](CC(=O)O)C(=O)N[C@H](C(=O)N[C@@H](CC(N)=O)C(=O)N1CCC[C@H]1C(=O)N[C@@H](C)C(=O)N[C@@H](Cc1c[nH]c2ccccc12)C(=O)N[C@@H](Cc1ccc(O)cc1)C(=O)N[C@@H](C)C(=O)N[C@@H](CO)C(=O)N[C@@H](CCCNC(=N)N)C(=O)N1CCC[C@H]1C(=O)N[C@@H](Cc1ccccc1)C(=O)N[C@@H](CCCNC(=N)N)C(=O)N1CCC[C@H]1C(=O)N[C@H](C(=O)NCC(=O)N[C@@H](CCCNC(=N)N)C(=O)N[C@@H](Cc1ccccc1)C(N)=O)C(C)C)[C@@H](C)CC)[C@@H](C)O
% of PrRP31 [1]: 671% | Ki [1]: 0.58 nM | % of PrRP31 [2]: 587% | Ki [2]: 0.84 nM

Binder: TPDINPAWYTGRGARPFGRF-NH2 [analog no. 31]
% of PrRP31 [1]: 0.7% | Ki [1]: 583 nM | % of PrRP31 [2]: 0.8% | Ki [2]: 655 nM

B2: analog no. 32 (peptide)
peptide: Myristoyl-TPDINPAWYTGRGARPFGRF-NH2
SMILES: CCCCCCCCCCCCCC(=O)N[C@H](C(=O)N1CCC[C@H]1C(=O)N[C@@H](CC(=O)O)C(=O)N[C@H](C(=O)N[C@@H](CC(N)=O)C(=O)N1CCC[C@H]1C(=O)N[C@@H](C)C(=O)N[C@@H](Cc1c[nH]c2ccccc12)C(=O)N[C@@H](Cc1ccc(O)cc1)C(=O)N[C@H](C(=O)NCC(=O)N[C@@H](CCCNC(=N)N)C(=O)NCC(=O)N[C@@H](C)C(=O)N[C@@H](CCCNC(=N)N)C(=O)N1CCC[C@H]1C(=O)N[C@@H](Cc1ccccc1)C(=O)NCC(=O)N[C@@H](CCCNC(=N)N)C(=O)N[C@@H](Cc1ccccc1)C(N)=O)[C@@H](C)O)[C@@H](C)CC)[C@@H](C)O
% of PrRP31 [1]: 46% | Ki [1]: 8.47 nM | % of PrRP31 [2]: 68% | Ki [2]: 7.21 nM

B3: analog no. 1 (peptide)
peptide: Myristoyl-TPDINPAWYTGRGIRPVGRF-NH2
SMILES: CCCCCCCCCCCCCC(=O)N[C@H](C(=O)N1CCC[C@H]1C(=O)N[C@@H](CC(=O)O)C(=O)N[C@H](C(=O)N[C@@H](CC(N)=O)C(=O)N1CCC[C@H]1C(=O)N[C@@H](C)C(=O)N[C@@H](Cc1c[nH]c2ccccc12)C(=O)N[C@@H](Cc1ccc(O)cc1)C(=O)N[C@H](C(=O)NCC(=O)N[C@@H](CCCNC(=N)N)C(=O)NCC(=O)N[C@H](C(=O)N[C@@H](CCCNC(=N)N)C(=O)N1CCC[C@H]1C(=O)N[C@H](C(=O)NCC(=O)N[C@@H](CCCNC(=N)N)C(=O)N[C@@H](Cc1ccccc1)C(N)=O)C(C)C)[C@@H](C)CC)[C@@H](C)O)[C@@H](C)CC)[C@@H](C)O
% of PrRP31 [1]: 133% | Ki [1]: 2.93 nM | % of PrRP31 [2]: 632% | Ki [2]: 0.78 nM

Binder: SRTHRHSMEIK([γGlu-Palmitoyl])TPDINPAWYASRGIRPVGRF-NH2 (also called compound 52) [analog no. 52]
% of PrRP31 [1]: 65% | Ki [1]: 5.95 nM | % of PrRP31 [2]: 57% | Ki [2]: 4.23 nM

Binder: SETHRHSMEIKTPDINPAWYASRGIRPVGRF (K(N-POE(N-palm)) at residue 11; C-terminal amide) [analog no. 58]
% of PrRP31 [1]: 103% | Ki [1]: 3.79 nM | % of PrRP31 [2]: 575% | Ki [2]: 0.41 nM

Binder: Palmitoyl-SRTHRHSMEIRTPDINPAWYASRGIRPVGRF-NH2 (also called analog no; 43; compound 43) [palm-PrRP31 (analog 43)]
% of PrRP31 [1]: 90% | % of PrRP31 [2]: 519% | Ki [2]: 0.95 nM

Binder: SRTHRHSMEIRTPDINPAWYASRGIRPVGRF-NH2 (synthetic peptide) [Human PrRP31]
% of PrRP31 [1]: 86% | % of PrRP31 [2]: 207% | Ki [2]: 2.38 nM

B7: analog no. 30 (peptide)
peptide: Myristoyl-TPDINPAWY[NMeA]SRGIRPVGRF-NH2
SMILES: CCCCCCCCCCCCCC(=O)N[C@H](C(=O)N1CCC[C@H]1C(=O)N[C@@H](CC(=O)O)C(=O)N[C@H](C(=O)N[C@@H](CC(N)=O)C(=O)N1CCC[C@H]1C(=O)N[C@@H](C)C(=O)N[C@@H](Cc1c[nH]c2ccccc12)C(=O)N[C@@H](Cc1ccc(O)cc1)C(=O)N(C)[C@@H](C)C(=O)N[C@@H](CO)C(=O)N[C@@H](CCCNC(=N)N)C(=O)NCC(=O)N[C@H](C(=O)N[C@@H](CCCNC(=N)N)C(=O)N1CCC[C@H]1C(=O)N[C@H](C(=O)NCC(=O)N[C@@H](CCCNC(=N)N)C(=O)N[C@@H](Cc1ccccc1)C(N)=O)C(C)C)[C@@H](C)CC)[C@@H](C)CC)[C@@H](C)O
% of PrRP31 [1]: 185% | Ki [1]: 2.1 nM | % of PrRP31 [2]: 1070% | Ki [2]: 0.46 nM

Further binders by falling Ki [2], results first:

% of PrRP31 [1]: 45% | Ki [1]: 8.72 nM | % of PrRP31 [2]: 10% | Ki [2]: 49.4 nM
B6: analog no. 29 (peptide)
peptide: TPDINPAWY[NMeA]SRGIRPVGRF-NH2
modifications: N-terminus assumed
SMILES: CC[C@H](C)[C@H](NC(=O)CNC(=O)[C@H](CCCNC(=N)N)NC(=O)[C@H](CO)NC(=O)[C@H](C)N(C)C(=O)[C@H](Cc1ccc(O)cc1)NC(=O)[C@H](Cc1c[nH]c2ccccc12)NC(=O)[C@H](C)NC(=O)[C@@H]1CCCN1C(=O)[C@H](CC(N)=O)NC(=O)[C@@H](NC(=O)[C@H](CC(=O)O)NC(=O)[C@@H]1CCCN1C(=O)[C@@H](N)[C@@H](C)O)[C@@H](C)CC)C(=O)N[C@@H](CCCNC(=N)N)C(=O)N1CCC[C@H]1C(=O)N[C@H](C(=O)NCC(=O)N[C@@H](CCCNC(=N)N)C(=O)N[C@@H](Cc1ccccc1)C(N)=O)C(C)C

% of PrRP31 [1]: 70% | Ki [1]: 5.56 nM | % of PrRP31 [2]: 143% | Ki [2]: 3.44 nM
Binder: TPDINPAWYTGRGIRPVGRF-NH2 (synthetic peptide) [Rat PrRP20]

% of PrRP31 [1]: 225% | Ki [1]: 1.73 nM | % of PrRP31 [2]: 230% | Ki [2]: 2.14 nM
Binder: TPDINPAWYASRPFRPVGRF-NH2 [analog no. 33]

% of PrRP31 [1]: 57% | % of PrRP31 [2]: 119% | Ki [2]: 0.5 nM
B5: analog no. 54 (peptide)
peptide: SRTHRHSMEIRTPDINPAWYASRGIRPVGRF
modifications: (N-palm)γ-E at the N-terminus (palmitoyl through gamma-glutamic acid); C-terminal amide

% of PrRP31 [1]: 83% | % of PrRP31 [2]: 1030% | Ki [2]: 0.48 nM
B4: analog no. 42 (peptide)
peptide: Myristoyl-SRTHRHSMEIRTPDINPAWYASRGIRPVGRF-NH2
SMILES: CCCCCCCCCCCCCC(=O)N[C@@H](CO)C(=O)N[C@@H](CCCNC(=N)N)C(=O)N[C@H](C(=O)N[C@@H](Cc1c[nH]cn1)C(=O)N[C@@H](CCCNC(=N)N)C(=O)N[C@@H](Cc1c[nH]cn1)C(=O)N[C@@H](CO)C(=O)N[C@@H](CCSC)C(=O)N[C@@H](CCC(=O)O)C(=O)N[C@H](C(=O)N[C@@H](CCCNC(=N)N)C(=O)N[C@H](C(=O)N1CCC[C@H]1C(=O)N[C@@H](CC(=O)O)C(=O)N[C@H](C(=O)N[C@@H](CC(N)=O)C(=O)N1CCC[C@H]1C(=O)N[C@@H](C)C(=O)N[C@@H](Cc1c[nH]c2ccccc12)C(=O)N[C@@H](Cc1ccc(O)cc1)C(=O)N[C@@H](C)C(=O)N[C@@H](CO)C(=O)N[C@@H](CCCNC(=N)N)C(=O)NCC(=O)N[C@H](C(=O)N[C@@H](CCCNC(=N)N)C(=O)N1CCC[C@H]1C(=O)N[C@H](C(=O)NCC(=O)N[C@@H](CCCNC(=N)N)C(=O)N[C@@H](Cc1ccccc1)C(N)=O)C(C)C)[C@@H](C)CC)[C@@H](C)CC)[C@@H](C)O)[C@@H](C)CC)[C@@H](C)O

From patent US20150196651A1 (published 2015)
